Data: publication PMC2779236 (The Journal of Cell Biology, 2009)
Where two headings read alike, the source gives them in different places.

T1: rat CEACAM1 D(1–4)-Fc fusion protein (rat, UniProt P16573 35-425)
T1 sequence (looked up): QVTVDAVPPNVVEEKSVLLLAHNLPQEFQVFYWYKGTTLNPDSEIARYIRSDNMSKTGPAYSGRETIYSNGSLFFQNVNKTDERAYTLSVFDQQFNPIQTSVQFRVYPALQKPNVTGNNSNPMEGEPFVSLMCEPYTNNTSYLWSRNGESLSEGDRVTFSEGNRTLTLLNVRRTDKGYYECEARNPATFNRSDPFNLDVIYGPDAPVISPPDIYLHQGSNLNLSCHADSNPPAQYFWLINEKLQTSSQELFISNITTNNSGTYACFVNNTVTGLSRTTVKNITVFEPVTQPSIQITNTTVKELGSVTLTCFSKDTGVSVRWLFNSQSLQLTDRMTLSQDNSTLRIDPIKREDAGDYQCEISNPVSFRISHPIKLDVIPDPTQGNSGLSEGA


Columns and labels:
[1] = molecular target: rat CEACAM1 D(2–4)-His ectodomain (rat); test: cross-linking
[2] = molecular target: the molecule itself; test: molecular electron tomography
[3] = molecular target: the molecule itself; test: molecular electron tomography; remark: listed apart in the source
[4] = molecular target: T1, rat CEACAM1 D(1–4)-Fc fusion protein; test: SPR

Row | Molecule | fold lower percentage of cross-linked dimers than D(1–4) [1] [fold lower] | KD monomer/A-dimer [2] [µM] | KD monomer/C-dimer [2] [µM] | KD monomer/A-dimer [3] [µM] | KD monomer/C-dimer [3] [µM] | Kd [4] [µM] | koff [4] [s⁻¹] | kon [4] [M⁻¹ s⁻¹]
1 | rat CEACAM1 D(2–4)-His ectodomain (domain or fragment) | 4 | – | – | – | – | – | – | –
2 | rat CEACAM1 D(1–4)-His ectodomain (domain or fragment, UniProt P16573 35-425, looked up, glycosylated (polydisperse, varying degrees of glycosylation; average molecular mass 81 kD)) QVTVDAVPPNVVEEKSVLLLAHNLPQEFQVFYWYKGTTLNPDSEIARYIRSDNMSKTGPAYSGRETIYSNGSLFFQNVNKTDERAYTLSVFDQQFNPIQTSVQFRVYPALQKPNVTGNNSNPMEGEPFVSLMCEPYTNNTSYLWSRNGESLSEGDRVTFSEGNRTLTLLNVRRTDKGYYECEARNPATFNRSDPFNLDVIYGPDAPVISPPDIYLHQGSNLNLSCHADSNPPAQYFWLINEKLQTSSQELFISNITTNNSGTYACFVNNTVTGLSRTTVKNITVFEPVTQPSIQITNTTVKELGSVTLTCFSKDTGVSVRWLFNSQSLQLTDRMTLSQDNSTLRIDPIKREDAGDYQCEISNPVSFRISHPIKLDVIPDPTQGNSGLSEGA | – | 113 | 43.8 | 260 | 72.1 | 11.2 | 0.508 ± 0.0078 | 45300 ± 3600
